{
  "source": "patent US20160040133A1",
  "about": "(published 2016)",
  "binders": {"B1": {"name": "PAZ domain of Arabidopsis Dicer-like protein 1 (DCL1) (pBD-GAL4 fusion, yeast two-hybrid bait) (other)", "chain": "MKLLSSIEQACDICRLKKLKCSKEKPKCAKCLKNNWECRYSPKTKRSPLTRAHLTEVESRLERLEQLFLLIFPREDLDMILKMDSLQDIKALLTGLFVQDNVNKDAVTDRLASVETDMPLTLRQHRISATSSSEESSNKGQRQLTVSEVEEDLSKGKLMMADGCMVAEDLIGKIVTAAHSGKRFYVDSICYDMSAETSFPRKEGYLGPLEYNTYADYYKQKYGVDLNCKQQPLIKGRGVSYCKNLLSPRFEQSGESETVLDKTYYVFLPPELCVVHP", "notes": "domain: BD;domain: PAZ domain; PAZ domain amplified by PCR and inserted into SalI and PstI digested pBD-GAL4 cam; also called DCL1-PAZ; PAZ domain of DCL1"}},
  "molecular_target": "T1, B2 C-9ASM (pAD-GAL4 fusion, yeast two-hybrid prey) (flock house virus)",
  "T1 construct": "Carries 9 alanine substitutions at the C-terminus; also called FHV B2 c-9ASM",
  "assay": "yeast two-hybrid (Table 1: colony -, β-GAL White)",
  "data": [
    {"binder": "B1", "values": [
      {"measurement": "binding result", "result": "no binding"}
    ]}
  ]
}
